In US20200010554A1 (TUSK THERAPEUTICS, published 2020):
Where a chain is given by its changes, count along the chain named. Read-outs that look alike come from different tables or passages of the source.

Experiments:
[1] = biological target: T1, human CD25 expressed on cells (Karpas 299, SU-DHL-1, SR-786, in vitro differentiated Treg cells, PBMC) (human, UniProt P01589 22-272); assay: flow cytometry titration on Karpas 299 cells, AF647 secondary antibody
T1 construct: also called CD25 expressing cells
T1 sequence: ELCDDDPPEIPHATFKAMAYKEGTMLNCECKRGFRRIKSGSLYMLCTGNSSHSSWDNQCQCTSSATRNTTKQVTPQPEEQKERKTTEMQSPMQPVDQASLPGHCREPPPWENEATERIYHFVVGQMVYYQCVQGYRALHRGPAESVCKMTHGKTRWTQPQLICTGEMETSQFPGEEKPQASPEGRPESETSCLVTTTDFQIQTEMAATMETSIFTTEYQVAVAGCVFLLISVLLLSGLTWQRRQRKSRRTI

[2] = biological target: T1, human CD25 expressed on cells (Karpas …); assay: as above; remark: listed apart in the source
[3] = biological target: T1, human CD25 expressed on cells (Karpas …); assay: as above; remark: listed apart in the source
[4] = biological target: T1, human CD25 expressed on cells (Karpas …); assay: as above; remark: listed apart in the source
[5] = biological target: T1, human CD25 expressed on cells (Karpas …); assay: as above; remark: listed apart in the source
[6] = biological target: T1, human CD25 expressed on cells (Karpas …); assay: as above; remark: listed apart in the source
[7] = biological target: T2, recombinant human CD25 his tagged (human, UniProt P01589 22-213, limits assumed); assay: biolayer interferometry, Octet Red 96: antibody on AHC biosensor, rhCD25 his tagged 50 nM to 0.54 nM, global 1:1 fit [F]
T2 construct: also called rhCD25 his tagged; rhCD25; not shown: his tag
T2 sequence: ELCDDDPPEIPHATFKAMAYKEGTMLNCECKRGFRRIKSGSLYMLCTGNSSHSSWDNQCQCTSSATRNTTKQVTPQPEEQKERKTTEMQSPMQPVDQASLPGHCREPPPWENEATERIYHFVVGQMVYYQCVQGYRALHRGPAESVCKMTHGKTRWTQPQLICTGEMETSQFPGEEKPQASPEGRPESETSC

[8] = biological target: T3, recombinant mouse CD25 his tagged (mouse, UniProt P01590 22-236, limits assumed); assay: SPR Biacore 2000, antibody captured by anti-mouse antibody on CM-5 chip, recombinant mouse CD25 his tagged as analyte, bivalent analyte model
T3 construct: also called rmCD25 his tagged; mCD25; not shown: his tag
T3 sequence (looked up): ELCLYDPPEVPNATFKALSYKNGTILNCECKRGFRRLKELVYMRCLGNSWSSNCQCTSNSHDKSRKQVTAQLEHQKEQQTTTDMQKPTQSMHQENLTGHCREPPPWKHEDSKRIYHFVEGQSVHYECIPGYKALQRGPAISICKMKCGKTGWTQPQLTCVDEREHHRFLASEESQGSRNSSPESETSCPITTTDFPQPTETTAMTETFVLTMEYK

[9] = biological target: T4, mouse CD25 expressed on cells (CHO cells expressing mouse CD25; mouse T cells) (mouse, UniProt P01590 22-268); assay: flow cytometry on CHO cells expressing mouse CD25, MFI AF647
T4 construct: whole, on cells; also called CHO-mCD25; cellular expressed mCD25
T4 sequence (looked up): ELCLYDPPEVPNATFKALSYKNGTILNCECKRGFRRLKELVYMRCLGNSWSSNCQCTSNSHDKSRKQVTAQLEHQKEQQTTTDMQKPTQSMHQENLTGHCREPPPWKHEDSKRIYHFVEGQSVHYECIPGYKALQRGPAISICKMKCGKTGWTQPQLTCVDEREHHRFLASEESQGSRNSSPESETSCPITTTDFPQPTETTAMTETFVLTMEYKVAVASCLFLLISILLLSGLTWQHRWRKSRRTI

recombinant mouse CD25 = biological target: T5, recombinant mouse CD25 (mouse, UniProt P01590 22-236, biotinylated in FIG. 1A (site not stated)); assay: BLI Octet RED384, IgG on AHQ sensors, 100 nM antigen, 1:1 model
T5 construct: also called biotinylated mouse CD25
T5 sequence (looked up): T3 sequence (looked up)

[10] = biological target: T1, human CD25 expressed on cells (Karpas …); assay: flow cytometry on SR-786 cells, Geo Mean Intensity
[11] = biological target: T1, human CD25 expressed on cells (Karpas …); assay: flow cytometry on Karpas 299 cells, MFI AF647
[12] = biological target: T2, recombinant human CD25 his tagged; assay: SPR, Biacore 2000: antibody captured on an anti-human antibody CM-5 chip, rhCD25 his tagged as analyte, 1:1 Langmuir fit
[13] = biological target: T1, human CD25 expressed on cells (Karpas …); assay: flow cytometry on SU-DHL-1 cells, Geo Mean Intensity
[14] = biological target: T1, human CD25 expressed on cells (Karpas …); assay: flow cytometry on Karpas 299 cells, MFI AF647; remark: listed apart in the source
[15] = biological target: T2, recombinant human CD25 his tagged; assay: SPR, Biacore 2000: antibody captured on an anti-human antibody CM-5 chip, rhCD25 his tagged as analyte, 1:1 Langmuir fit; remark: listed apart in the source

B1: Antibody 10 (antibody, V domains shown)
VH: QVQLQESGPGLVKPSETLSLTCTVSGFSLTSYGIQWIRQPPGKGLEWIGVIWAGGSTNYNSALMSRVTISKDNSKNQFSLKLSSVTAADTAVYYCARAYGYDGSWLAYWGQGTLVTVSS
VL: EIVLTQSPATLSLSPGERATLSCRASSSVSYMHWYQQKPGQAPRPLIFATSNLASGIPARFSGSGSGTDFTLTISSLEPEDFAVYYCQQWSSNPPTFGGGTKLEIK
notes: also called Ab10
EC50 (read off the curve) [1]: ~0.3 µg/mL

B2: Antibody 6 (antibody, V domains shown)
VH: EVQLLESGGGLVQPGGSLRLSCAASGFTFSSYGMSWVRQAPGKGLELVSTINGYGDTTYYPDSVKGRFTISRDNSKNTLYLQMNSLRAEDTAVYYCARDRDYGNSYYYALDYWGQGTLVTVSS
VL: B1 VL with A9G, Y31F, Y35L, F48Y, A59D, F70Y, S76R, T96A, G99Q
notes: compared with a human IgG1 isotype control
binding result [2]: binds

B3: Antibody 7 (antibody, V domains shown)
VH: B2 VH
VL: QIVLTQSPGTLSLSPGERATLSCRASSSVSFMHWLQQKPGQSPRPLIYATSNLASGIPDRFSGSGSGTDYTLTISRLEPEDFAVYYCQQWSSNPPAFGQGTKLEIK
notes: as for B2
binding result [3]: binds

B4: Antibody 11 (antibody, V domains shown)
VH: B1 VH
VL: B1 VL with E1Q, F70Y
notes: also called Ab11
EC50 (read off the curve) [4]: ~0.3 µg/mL

B5: Antibody 8 (antibody, V domains shown)
VH: B2 VH with S75A, Y95F
VL: B3 VL with Q1E, S42A
notes: as for B2
binding result [5]: binds

B6: Antibody 9 (antibody, V domains shown)
VH: B2 VH with S75A, Y95F
VL: B3 VL
notes: as for B2
binding result [6]: binds

B7: Antibody 5 (antibody, V domains shown)
VH: EVQLVESGGGLIQPGGSLRLSCAASGFTLDSYGVSWVRQAPGKGLEWVGVTSSGGSAYYADSVKGRFTISRDNSKNTLYLQMNSLRAEDTAVYYCARDRYVYTGGYLYHYGMDLWGQGTLVTVSS
VL: DIQMTQSPSSLSASVGDRVTITCRASQSISDYLAWYQQKPGKVPKLLIYAASTLPFGVPSRFSGSGSGTDFTLTISSLQPEDVATYYCQGTYDSSDWYWAFGGGTKVEI
notes: as for B2
Kd [7]: 0.8 nM

B8: PC61(mIgG2a), recombinant anti-mouse CD25 antibody from clone PC-61.5.3 with murine IgG2a and kappa constant regions (antibody, V domains shown)
VH: EVQLQQSGAELVRPGTSVKLSCKVSGDTITAYYIHFVKQRPGQGLEWIGRIDPEDDSTEYAEKFKNKATITANTSSNTAHLKYSRLTSEDTATYFCTTDNMGATEFVYWGQGTLVTVSS
VL: QVVLTQPKSVSASLESTVKLSCKLNSGNIGSYYMHWYQQREGRSPTNLIYRDDKRPDGAPDRFSGSIDISSNSAFLTINNVQTEDEAMYFCHSYDGRMYIFGGGTKLTV
notes: also called PC61m2a; aPC61 mIgG2a
Kd [8]: 3.6 nM | EC50 (read off the curve) [9]: ~0.2 µg/mL | Kd (recombinant mouse CD25): 4.6 nM

B9: chimeric 7G7B6 (antibody, V domains shown)
VH: EVQLVESGGDLVQPRGSLKLSCAASGFTFSSYGMSWVRQTPDKRLELVATINGYGDTTYYPDSVKGRFTISRDNAKNTLYLQMSSLKSEDTAMYFCARDRDYGNSYYYALDYWGQGTSVTVSS
VL: QIVLSQSPAILSASPGERVTMTCRASSSVSFMHWLQQKPGSSPKPWIYATSNLASGVSARFSGSGSGTSYSLTITRVEAEDAATYYCQQWSSNPPAFGGGTKLEIK
notes: also called 7G7B6 chimeric antibody; 7g7B6ch
EC50 (read off the curve) [10]: ~0.9 µg/mL | EC50 (read off the curve) [11]: ~1 µg/mL | Kd [12]: 6.7 nM | EC50 (read off the curve) [13]: ~0.8 µg/mL

B10: MA251, mouse anti-human CD25 antibody (antibody, V domains shown)
VH: QVQLKESGPGLVAPSQSLSITCTVSGFSLTSYGIQWVRQPPGKGLEWLGVIWAGGSTNYNSALMSRLSISKDNSKSQVFLKMNSLQTDDTAMYYCARAYGYDGSWLAYWGQGTLVTVSS
VL: B9 VL with R18K, F31Y, L35Y, Y48F, S58P, T75N, A83D, A96T
notes: Mouse isotype (compared with a mouse IgG1 isotype control)
EC50 (read off the curve) [14]: ~0.1 µg/mL

B11: MA251ch (antibody, V domains shown)
VH: B10 VH
VL: B9 VL with R18K, F31Y, L35Y, Y48F, S58P, T75N, A83D, A96T
Kd [15]: 6.6 nM
